Values joined by “and” are separate entries in the source; they are usually repeats but may differ in a detail not shown here. Equal entries are not always repeated.
Assays:
Assay in all cases: periplasmic extract ELISA, control
[1] = target: recombinant rat Aggrecan G1-IGD-G2 (rat) (UniProt P07897)
[2] = target: recombinant cynomolgus Aggrecan G1-IGD-G2 (cynomolgus)
[3] = target: recombinant human Aggrecan G1-IGD-G2 (human) (UniProt P16112)
[4] = target: recombinant bovine Aggrecan G1-IGD-G2 (bovine) (UniProt P13608)
[5] = target: recombinant dog Aggrecan G1-IGD-G2 (dog) (UniProt Q28343)

cAbLys3 (VHH)
OD 450 nm [1]: 0.06 OD 450 nm | OD 450 nm [2]: 0.06 OD 450 nm and 0.05 OD 450 nm | OD 450 nm [3]: 0.05 OD 450 nm | OD 450 nm [4]: 0.05 OD 450 nm and 0.06 OD 450 nm | OD 450 nm [5]: 0.06 OD 450 nm
